Measurements from PMC12276331, “Nanomechanical binding mechanism of ligands drives agonistic activity” (Nature Communications, 2025).

Legend:
[1] = molecular target: T1, transmembrane hCD40 receptor expressed on the surface of CHO cells (CHO-CD40-GFP) (human, UniProt P25942 21-277); test: single-molecule force spectroscopy (AFM, SMFS); hCD40L coupled by its His6-tag to the PEG-tris-NTA AFM tip; living CHO cells expressing hCD40; room temperature; HEPES buffer (137 mM NaCl, 2.7 mM KCl, 10 mM HEPES, pH 7.4) with 50 µM NiCl2; contact time and pulling speed varied; Bell-Evans and Markov binding models; settings: one partner purified
T1 construct: CD40 (TNFR superfamily), human; expressed from a CD40 green fluorescent protein fusion construct (Origene #RG201977) on CHO cells; source: CHO cells, transfected (Lipofectamine 2000), G418-selected and sorted by GFP; on living cells
T1 sequence (P25942 21-277): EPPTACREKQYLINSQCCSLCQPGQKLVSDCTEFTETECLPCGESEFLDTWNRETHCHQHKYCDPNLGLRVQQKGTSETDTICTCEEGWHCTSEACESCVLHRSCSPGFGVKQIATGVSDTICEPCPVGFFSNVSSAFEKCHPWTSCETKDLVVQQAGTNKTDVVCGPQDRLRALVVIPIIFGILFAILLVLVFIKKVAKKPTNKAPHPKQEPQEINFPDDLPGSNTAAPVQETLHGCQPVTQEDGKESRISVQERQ

[2] = molecular target: T1, transmembrane hCD40 receptor expressed …; test: as above; settings: one partner purified; remark: listed apart in the source

B1: Active trimeric human CD40 ligand (hCD40L/hCD154; residues 116G-261L) with N-terminal His6-tag (CDL-H5248) (ligand, UniProt P29965 116-261, looked up)
chain: GDQNPQIAAHVISEASSKTTSVLQWAEKGYYTMSNNLVTLENGKQLTVKRQGLYYIYAQVTFCSNREASSQAPFIASLCLKSPGRFERILLRAANTHSSAKPCGQQSIHLGGVFELQPGASVFVNVTDPSQVSHGTGFTSFGLLKL
notes: CD40 ligand (CD154), human, residues 116G-261L; Used for SMFS (coupled to the tip by its His6-tag through tris-NTA/Ni) and for HS-AFM; also called trimeric hCD40L; source: bought: AcroBiosystems, USA (CDL-H5248); not shown: His6, N-terminal, kept
Kd [1]: 3.2 µM | Kd [2]: 3.3 µM | koff [2]: 0.35 s⁻¹ | kon [2]: 160000 M⁻¹ s⁻¹
